Experiments:
Test in all cases: fluorescence, 4-mU release
Type in all cases: biochemical, Moraxella sp. TA144
Details in all cases: 0.1 M phosphate pH 7, 30 °C, 5% DMSO
[1] = system: CCOCCOC(=O)c1ccc(C(=O)Oc2ccc3c(C)cc(=O)oc3c2)cc1
Description: (§1) fluorescence, 4-mU release on MoPE (polyesterase)

[2] = system: COC(=O)c1ccc(C(=O)OCCOC(=O)c2ccc(C(=O)Oc3ccc4c(C)cc(=O)oc4c3)cc2)cc1
Description: as §1

[3] = system: COC(=O)c1ccc(C(=O)Oc2ccc3c(C)cc(=O)oc3c2)cc1
Description: as §1

MoPE (polyesterase) (Moraxella sp. TA144)
Km [1]: 15.6 ± 1.5 µM | kcat [1]: 0.00014 ± 1e-06 s⁻¹ | Km [2]: 17.4 ± 2.1 µM | Km [3]: 1.9 ± 0.1 µM | kcat [3]: 3e-05 ± 1e-06 s⁻¹
